Experimental data reported in article PMC6820730 (2019).
No end group written: not given here.

Biological target: AVPR1a (Homo sapiens, UniProt P37288)
Assay: 125I-OVTA competition binding, intact CHO cells

AVPR1a, sequence (P37288 whole entry): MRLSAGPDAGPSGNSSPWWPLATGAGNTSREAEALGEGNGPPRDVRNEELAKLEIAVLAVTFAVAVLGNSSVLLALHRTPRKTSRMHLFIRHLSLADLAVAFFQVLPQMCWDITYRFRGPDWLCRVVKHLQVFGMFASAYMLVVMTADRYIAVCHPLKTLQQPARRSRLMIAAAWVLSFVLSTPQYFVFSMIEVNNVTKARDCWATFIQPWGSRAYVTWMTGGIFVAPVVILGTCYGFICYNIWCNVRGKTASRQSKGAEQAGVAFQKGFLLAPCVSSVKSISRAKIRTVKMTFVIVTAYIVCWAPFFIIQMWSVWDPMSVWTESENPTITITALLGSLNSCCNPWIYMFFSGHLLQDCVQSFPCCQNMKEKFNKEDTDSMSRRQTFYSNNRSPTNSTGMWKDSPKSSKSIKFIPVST

Ki: 8.71 nM
B1: Pro8-OXT (peptide)
chain: CYIQNCPPG
modifications: not fully specified; cysteine pairing not given here
